Reference: patent publication US20100015155A1

Biological target: human soluble Abeta (1-40) (human) (UniProt P05067)
Assay: KinExA equilibrium, antigen on sepharose beads, soluble Abeta (1-40) titrated, 37 C

Chain of human soluble Abeta (1-40) (human) (P05067 672-711 limits assumed): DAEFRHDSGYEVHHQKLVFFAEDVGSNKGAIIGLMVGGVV

Kd: 0.24 nM
Substance: murine 266 Fab (Fab fragment of the murine monoclonal antibody designated 266)
